These results are taken from article PMC4365404, “Understanding the effect of alternative splicing in the folding and function of the second PDZ from Protein Tyrosine Phosphatase-BL” (Scientific Reports, 2015).

The target of one experiment is T1, pWT43 PDZ2as (Mus musculus, UniProt Q64512, INS1372VLFDK/Y1385W).
T1 construct: The second PDZ domain of the protein tyrosine phosphatase BL (PDZ2); made in house
T1 sequence (Q64512 with tags, fused parts or gaps INS1372VLFDK/Y1385W): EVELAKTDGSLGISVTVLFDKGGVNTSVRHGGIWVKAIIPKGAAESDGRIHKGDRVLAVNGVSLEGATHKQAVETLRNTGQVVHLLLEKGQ
Put plainly: T-jump kinetic binding of dansylated peptides to pWT43 PDZ2as. The settings on record: 50 mM sodium phosphate pH 7.2, 150 mM KCl; for Kd: 25°C, from T-jump kinetics, read-out: overall KD obtained from kinetic experiments; for kon / koff: T-jump 16 to 25°C, PDZ2as 2 μM, peptide 100 to 400 μM, fluorescence ex 296 nm, 20 traces averaged, pseudo-first order; for kon: read-out: association bimolecular rate constant kon; for koff: read-out: dissociation rate constant koff. Here is the method:
Previous studies have highlighted that the alternative splicing affects remarkably the binding function of the PDZ moiety, by nearly abrogating binding. To address the binding mechanism of pWT43 PDZ2as and its physiological partners, we performed kinetic experiments at 25°C. We carried out kinetic binding experiments by subjecting to temperature jump kinetics a constant concentration of pWT43 PDZ2as (2 μM) in the presence of excess concentrations of dansylated peptides mimicking the PDZ binding motif of APC and RIL; the latter concentrations typically varying from 100 to 400 μM. In particular, individual solutions containing a constant concentration of PDZ2as 2 μM and different concentrations of APC and RIL peptide were prepared and, subsequently, each of these solutions was subjected to a rapid temperature-jump to explore sub-ms relaxation binding kinetics. Under all the explored conditions, the observed time course was satisfactorily fitted by a single-exponential function, without evidence for accumulation of detectable intermediates. Analysis of the pseudo-first order dependence of observed rate constants (Figure 6) yields an association bimolecular rate constant kon of (0.44 ± 0.1) 10^6 s^−1 M^−1 and (0.74 ± 0.1) 10^6 s^−1 M^−1 and a dissociation rate constant koff of 145 ± 10 s^−1 and 120 ± 15 s^−1, respectively for APC and RIL peptides. […] A comparison between the observed kinetics on the light of previously reported structural and kinetic data of pWT43 PDZ2 is briefly discussed below.
Figure 6 Binding properties of pWT43 PDZ2as and of pWT43 PDZ2. Pseudo first order kinetics of the binding between pWT43 PDZ2as (circles) and pWT43 PDZ2 (diamonds) carried out at pH 7.2, 25°C. Data refer to both the APC (open symbols) and RIL (filled symbols) peptide.
Dansylated peptides corresponding to the C-terminus of APC and RIL, sequences D-SYLVTSV and D-EQVSAV, respectively, were purchased from JPT Peptide Technologies (Berlin, Germany); peptides were purified using high-performance liquid chromatography-purified peptide with purity higher than 95%.
Binding experiments were performed mixing a constant concentration of PDZ2as 2 μM with increasing concentrations of the APC or RIL peptide ranging from 100 to 400 μM in 50 mM sodium phosphate pH 7.2, in the presence of 150 mM KCl. The experiments were carried out using a Hi-Tech PTJ-64 capacitor-discharge T-jump apparatus (Hi-Tech, Salisbury, U.K.). Temperature was rapidly changed from 16°C to 25°C with a jump of 9°C. 20 individual traces were averaged at given peptide concentration. The fluorescence change of N-acetyltryptophanamide (NATA) was used in control measurements. Protein concentration was typically […]. The excitation wavelength was 296 nm and the fluorescence emission was measured using a band pass 315 +/− 25 nm glass filter.

Experiment [1] deals with T2, pWT43 PDZ2as, the alternatively spliced form of the second PDZ domain of protein tyrosine phosphatase BL ….
T2 chain: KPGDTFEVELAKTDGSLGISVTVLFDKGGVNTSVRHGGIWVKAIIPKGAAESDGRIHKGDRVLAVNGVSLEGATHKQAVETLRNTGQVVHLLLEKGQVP
Put plainly: temperature-jump fluorescence relaxation kinetics; constant pWT43 PDZ2as 2 uM with dansylated peptide 100 to 400 uM (pseudo-first order); 50 mM sodium phosphate pH 7.2, 150 mM KCl; jump from 16 to 25 °C; KD from kinetics. The settings on record: both partners purified.

Where a SMILES comes first, the peptide text is derived from it. Where no end group is shown, it is not given here. The star is where a group is joined. Dansyl = CN(C)c1cccc2c(S(=O)(=O)*)cccc12

For orientation: Kd means the constant that tells how readily two partners part at equilibrium. Usually kon stands for the rate constant with which the complex forms. Usually koff stands for the rate constant with which the complex falls apart.

For `CC(C)C[C@H](NC(=O)[C@H](Cc1ccc(O)cc1)NC(=O)[C@H](CO)NS(=O)(=O)c1cccc2c(N(C)C)cccc12)C(=O)N[C@H](C(=O)N[C@H](C(=O)N[C@@H](CO)C(=O)N[C@H](C(=O)O)C(C)C)[C@@H](C)O)C(C)C` [APC] (Dansyl-SYLVTSV-OH), at pWT43 PDZ2as, the Kd was found to be 352 ± 20 µM, the kon was 440000 ± 100000 M⁻¹ s⁻¹ and the off-rate constant (koff) stood at 145 ± 10 s⁻¹.
Take `CC(C)[C@H](NC(=O)[C@H](C)NC(=O)[C@H](CO)NC(=O)[C@@H](NC(=O)[C@H](CCC(N)=O)NC(=O)[C@H](CCC(=O)O)NS(=O)(=O)c1cccc2c(N(C)C)cccc12)C(C)C)C(=O)O` [RIL] (Dansyl-EQVSAV-OH): at pWT43 PDZ2as, the Kd was determined as 162 ± 10 µM, the kon was 740000 ± 100000 M⁻¹ s⁻¹ and the koff turned out to be 120 ± 15 s⁻¹.

B1: Dansylated peptide corresponding to the C-terminus of RIL (D-EQVSAV) (peptide)
peptide: Dansyl-EQVSAV
notes: Which natural protein the peptide comes from is in doubt; also called RIL peptide; source: bought: JPT Peptide Technologies (Berlin, Germany), HPLC-purified, purity higher than 95%
Turning to B1, in experiment [1], the Kd was found to be 162 ± 10 µM, the “fold decrease of kon against pWT43 PDZ2” value was ~10 fold, the koff is 120 ± 15 s⁻¹ and the kon is 740000 M⁻¹ s⁻¹.

B2: Dansylated peptide corresponding to the C-terminus of APC (D-SYLVTSV) (peptide)
peptide: Dansyl-SYLVTSV
notes: C-terminus of the tumour suppressor protein APC; the last 7 residues; also called APC peptide; source: bought: JPT Peptide Technologies (Berlin, Germany), HPLC-purified, purity higher than 95%
With B2, in experiment [1], the affinity, expressed as Kd, was 352 ± 20 µM; the “fold decrease of kon against pWT43 PDZ2” value was ~10 fold; the koff came to 145 ± 10 s⁻¹; the kon was determined as 440000 M⁻¹ s⁻¹.
